Experimental findings from a protein production outcome set (Wang et al. 2014) are described below.

A short description of this data set: label from the status in PepcDB records.
With “MVLEAFLVKKNEPNWLVVLRTVMPLGLSYIPIGLACGVLLHAAGFNHLLTALISVMVFSGGAQFLIASMLTINAPMTTIILMMFFLELRYALLGSSLSRYLKGQSLPFIFTFAFSMNDENYAVNYLKFATDKHWKPSQALMVEHYSLLFWTVSNIIGSLIGSALTINLQVVDFALTALFIYMAIMQTKSRLIILVAVLCGVLTIGFLVLMKSTLGLVVSTLLASLTGYFIERYLLAHKPESHLLYKVHDPTGQTAMEESDK”, the protein production result is “failed”. Consider “MRTDNINHWDVVAETYSEENNRGRNFHSQIYLAAVNELLGNVKGKCVLDAGCGDGFFSLELAQKGALVTAVDSSEAMLSIAKHKHVHDNLQYYNMDLTRELTFEDKFFDIVVANMLLMDIPEIELLIFEIARVLKKPGTFIFSITHPCFFLSDWEENENNIKTYKKIGNYLEERVEELNFWGKTLHYHRPLSRYMEAVEKAGMYVSSLREPVPPRELIELYPEQEYHCRIPSFVVIMAQMV”, for which the protein production result is given as “failed”. To “MLPSRKTKRVFSCDFTPGRKRRRCVVVPSSVSPVPENTTGADLLDSIPDDLVISILCKLGSTSRCPADFINVLLTCKRLKGLAMNPIVLSRLSPKAIAVKAHNWSEYSHRFLKRCVDAGSLEACYTLGMIRFYCLQNRGNGASLMAKAAISSHAPALYSLAVIQFNGSGGSKNDKDLRAGVALCARAAFLGHVDALRELGHCLQDGYGVPQNVSEGRRFLVQANARELAAVLSSGIQARSTWLSLSQPPPPVVPNHGQQTCPLLSDFGCNVPAPETHPANRFLADWFAVRGGDCPGDGLRLCSHAGCGRPETRKHEFRRCSVCGVVNYCSRACQALDWKLRHKMDCAPVQRWLEEGDGGEGNVQIDGNGNGDNVLLPMS” belongs “failed”. To “MEKNVTPMIRQYLDIKKKYKDAVLFFRVGSFYEMFFDDAIEVSKLLNLTLTKRENVPMCGVPYHTSKEYIRKLILFDKKVAICEQASNSTSGGPLEREVVEVITPGVIIDEDFLNDDINNYLVAISDYKDYYSFSYIDLSTSSLGIMFYENGFFEKLKRDLEKYSPKEIIVSENFYYEYSEKLNLSRFLINRVPTWHLDKDIAIKTIKEHFNILGLSSLGFDEEKPYYISIFLIINHIKNNLKNLLSNIDKIDINNDSSYMFLDDVTQVNLELVKNNNDFSSQYSLYSVLNDCKTAMGKRLLREFILNPILNISEINTRLDHVEFFCKNISLTVTLRETFINIWDIERIISRIQMKRYIKKDFLFIEKALSVFFTVKKLFDKHNFDYWNFDKFEEDSISKVYFLINSAISSAPDELIKRGYDLKLDNLKDLKINANKYIDQYLESERLLSKINNLKIRKTNNRGLFFEVTKSNYAQVPPHFMESQALNSSKRYKTEKLISLEVDINNAEDNVVAFEQEIFDEIASNVVMHNKVLKKVAEFFAYIDLVVNFGYLAKKNEYKRPVLTSGKEILLEKSRHPVVEHYTKNTEIFTENFVRINKEKYFCLITGPNMAGKSTYLRQVALITLMAHIGSFVPASKALIGITDKIFCRIGASDNIAKGESTFLVEMNETANILRNATEKSLIIMDEVGRGTSTNDGLAIAYSIIEYILEYIKARSLFATHFHELSSINHQAFINLSMKIEKQGNDLVFLREVEEKPSLNSYGIYVARIAGLPLRVIDRANVILESLVGREGNSCLEFLPHVSSDGNDKEILKNDTDIHIKLNEYLELKNFISNIDINNITPFQSIELLNQIVLKVISQSS” belongs “failed”; to “MGRVYYGGVERTYLYRGRILNLALEGRYEIVEHKPAVAVIALREGRMLFVRQMRPAVGLAPLEIPAGLIEPGEDPLEAARRELAEETGLSGDLTYLFSYFVSPGFTDEKTHVFLAENLKEVEAHPDEDEAIEVVWMRPEEALERHQRGEVEFSATGLVGVLYYHAFLRGR”, “not failed”; to “MGWVTDWSAQAACRTTDPDELFVQGAAQNRAKAVCTGCPVRTECLADALDNRVEFGVWGGMTERERRALLRRRPTVTSWRRLLETARTEYERGVGIVPLDDDEVYENYAAVG”, “failed”. In the case of “MASIEQVAELISSLEQATLMAQQIGTTVGQNQLLQISSLRIAHQRLSAFLASIPTAEAEKSFSSVEPMQLGEEEKGEAEPAEEERYSAIEKVEEKMRECFIRNKRLKRPLSPSSAVVETSATEERSGRDYGFDSDPHATKLRALDLIYQFHA”, the protein production result is “failed”. With “MSDWNIDQAEELYGVNRWGAGYFSIGENGNIQIRPNHRLPDVTIDMKEVVDEIISEGIQFPAVIRFHDILRSQVEIINETFGKQIEEANYQGQYCGVFPIKVNQMREVVEEIMDAGEPYNYGLEAGSKPELMAVMAYNDNPEALTILNGYKDKDYLTLALLGRQLKRKMIIVIEKFSELEMLIPLAKQMGVKPMIGLRSKMMVKSSGKWAGSSGDRAKFGLSIAEILNVIERLREEDMLHCAKLLHFHIGSQLSDIRKIKEAVNEGARLYAKLVLEGMPLEYLDIGGGLGIDYDGTSTTNDSSRNYSTEEYVADVVWGVKQICDLEKVPHPNLVSESGRAMTAHHSCVVTNIVGEMKPAGTQYDISASSDEHILVKNMRELHSSGDQFHPQERYNDAAGYKQNAYEAFKLGILSLNEMAKLDTMYWQILADIHHSLDKDTYVMQELEELEDMLASQYLCNFSVFQSAADTWAIGQVLPVVPISRLNEQPEVRCSIVDITCDSDGKLSKYIEGTDISDHIPMHNLRKGEDYHVGLFLTGAYQDVMGDMHNLFGRLTEVHVYCHDDEPGDFYIEEVVPGTSAEKVLQTMQYNTEYMAKTVKKQIDRQVRKGSLAPREGVRWTNFYEHCLAGSTYLRVE”, the protein production entry was “failed”.

As for “VDKVDSREEKITEKFDEPATYIEDAEQLEGEETLVTPGTQGERTVTRKIVTVNGVETANEVVNEEIITPGVAATIKRGAKK”, the protein production entry is reported as “failed”. With “MEMIRGRGIPNGVVQVPNLSANNLLQKFFIASNHFCQRDSEHGENQQEAKKREDEAEEDEKDVELTLGLSLNGQFGTDPRSRKRRHFELGRSSSIPEGFVFDEQRSGGGNGGDMRRIVGRGGSDMFQLDRTRSLPVVTEMDIEKERKVSEKTRAFMESPVTNRGAYLTKDKNRGQAVETEKPRAFLEFKIPPTKEGKKEKDRLVVTGPVNGKGKNGNTAKKQKNNVENSGMEKARNILEDMPCVSTRDVGADGKRVEGFLYWYGGNKEEVKIVCVCHGSFLSPAEFVRHGGGTVSDDDGGDVMINPLRHIVVKLPSSSI”, the protein production result is given as “failed”. “MPTICEFLGYKVYMFYQDHSPPHIHVIGKGFRAALSIPEGKLLAGTLPRRVQGVAKMWVRQEATALMQNWLRAEAGEVLQQVKPPEGWLEHHHHHH”: the protein production entry is reported as “failed”. On to “QERLKITALPLYFEGFLLIKRSGYREYEHYWTELRGTTLFFYTDKKSIIYVDKLDIVDLTCLTEQNSTEKNCAKFTLVLPKEEVQLKTENTESGEEWRGFILTVTELSVPQNVSLLPGQVIKLHEVLEREKKRRIE”, for which the protein production result is “not failed”. “SFYLSELEHSLRVPPHLLNLPLEDAIKSVLQNVFLDKVLADLGLCVSIYDIKSVEGGFVLPGDGAATYKVGLRIVVFRPFVGEVIAAKFKESDANGLRLTLGFFDDIYVPAPLMPKPNRCEPDPYNRKQMIWVWEYGEPKEDYIVDDACQIKFRVESISYPSVPTERAEDAKPFAPMVVTGNMDDDGLGPVSWWDSYEQVDQEE”: the protein production result is “failed”. On to “MDLIHEKVFVNRYHYDVRNHEWEKENGVPKTNVEVTFQLHHKDKEANNTSVVAVLQFMIVRDEFVISGIVSQMNHIQNRIVNNPKDFSQEEAEYLAAPLLDTLQRLTYEVTEIALDRPGINLEF”, for which the protein production result was “not failed”. With “MAISVIMSVYNERPEQVQQAVDSILKQTYLPREFVIVLDNPERSDLKDLLMDYDCRVEMIKLVCNPENLGLAASLNKAIELASSELIARMDADDISVTNRLEVELEALKTRDLDLISGNITYLDEQDEVVGEKSAIPEAEPLIQKILPYGSTIIHPTVLMRKTAVQQVGGYRLLPTAEDYDLWLRLLANGFKIGSINRRVLNYRLRGNSMTSDAWKTYLVSRYIQQLYAERKRTGADSFGRGMSALTDKINDVRAQSTFNRGQKYFTMAMASMRKRKLGQALAALVRAMVTSPDNCYYVINYLRLRTIWSVNGRRYRQQPSD”, the protein production result is “failed”.

Take “MAFTESDVYNNTAFFEQYMKRRYRENSPNESIEKPVFFQLIGHVQGKQILDLGCGDAKFGAELLEKGCYSYTGIEGSELMYEKAKKQLENKNGSVHFLNLKDYTYPSSTFDLVTSRLALHYIEHLDTIFQNVFQTLKTNGTFTFSVQHPVITSSFESLQTSGKRTIWLVDDYFKLGKRVEPWIDQEVIKYHRTTEEYFTLLQQAGFTITSLKEATPNPTYFQDEEEYKRRLRIPLFLLFSCTK”: the protein production result is listed as “failed”.

Consider “MIWNIDYFCNLRCKSCNAWQGKIFFPEDQIDKHLQEMKNNGIKIVSVTGGEPTLNKNVVDIIRKLKENHFFTHIATNGTNPYVLRKLYPYLDAVTISLDSNIPEEHNAYRGLKIFDTVVSNIKEAKSKVKIVTANMLVTNF”, for which the protein production result was “failed”. On to “MKNPQSKADDILQCARTLIIRGGYNSFSYADISQVVGIRNASIHHHFPSKSDLVCKLVSQYRQEAEAGIAELEKNISDPLEQLRAYIGYWEGCIADATHPFCVCALLASEIPVLPETVVLEVRAHFRSLSDWLTAVLERGIAQGRLVLTGTARANAEIFMATVHGAMLSARAHGDAATFGAITRPMLERITA”, for which the protein production entry is reported as “not failed”.

For “MMIIGINGSPRKNGNTIEMLKSALDGAKAQGAETELINLYDYNYKGCVSCFSCKLKGGRSYGKCALKDDLKPILEKIEKADAFILASPIYFGMVTGEMRSFMERLLFQYLVYDKDHSSLFNRKIKTGFIYTMNVPETYLDSVGYNKLFESNEATLKRIFGASEYILSTDTYQFDDYSKYEASMFDVEAKKKRREEVFPEDCKRAYEMGASFVKLEHHHHHH”, the protein production result is on record as “failed”.

Consider “MERAFLRYVPILAFITIMTMYVEMVILPSLPEIENQFSITSSEASWVLSSETLAGMTLAPFLGKLADSYGRKKVLISILVVYILSVFLTAISPNYSILLISRSIQGIGLSINPIAYTILRERIPDRELPIAQGIIASTFAIGAAVALPIGSYISQYFSWEFAYETAIPLLILSTIIIYVILPSSESKGSDRKIDDVGVILLSLSFLILGIGLTEAPTWGWTSLQFFTSLLLSILLFYLFALHISKSRNPIIDPYDFKNPNVAVPLISSFITGFGLFLTFQSLVFIFELPSPIGYGMTILQTGETMAPIALIILIAGPFFGRLVTKIGYMKVILTSSSVSSFLLLFLAYIISLRISVLELMGFLSLILFFISGMNVTRVTLLIASSKRERMSTLTGTNTSMRLMGNTLGPIVVGSLEDTFKTPIFEGYLNNIPIFAFVPSRLAFEYAFLISMATTVLVTILATRIRERPSTTTYA”, for which the protein production entry is listed as “failed”. Take “MGTAWNYPDLGSKNPMSGMVQSETAVIGGAGNVGMGIVAALLDAGMPTVVIGRDAAKLDALRAQHGHSPLLDIVQGSVADDASARRLATELAQRHRPLGAVIASLGSPPKAGRLLDRPVAVLRRRLERDVLPHLAAARHLLPLLAEADGGGRYLLLGSPCALRAWSAHGDRSVAASATRMLAQVLHEEAKPLGVRVQLLSVEQPVCTPGRAKDACPEWIRAVDVGRAAVSLIAGPGQPGQAIVTVSRRPHAAPSASRLAGLHVSIPTREISP”: the protein production result was “failed”. Turning to “MTKTFKTLDDFLGTHFIYTYDNGWEYEWYAKNDHTVDYRIHGGMVAGRWVTDQKADIVMLTEGIYKISWTEPTGTDVALDFMPNEKKLHGTIFFPKWVEEHPEITVTYQNEHIDLMEQSREKYATYPKLVVPEFANITYMGDAGQNNEDVISEAPYKEMPNDIRNGKYFDQNYHRLNK”, the protein production result is “not failed”.

Turning to “MKPPSAIMETALYADDLDAAEAFYRDVFGLEMVLKLPGQLVFFKCGRQMLLLFDPQESSRADANNPIPRHGAVGQGHFCFYADDKAEVDEWKTRFEALEIPVEHYHRWPNGSYSVYIRDPAGNSVEVGEGKLWGFE”, the protein production result is recorded as “not failed”.
